Results as given in patent US6506881B1, “Anti-HMFG antibodies and processes for their production” (Celltech R&D Limited, priority 1991, dated 2003).

B1: gL1gH2: CDR-grafted light chain gL1 with CDR-grafted heavy chain gH2, transiently expressed (antibody, V domains shown)
VH: QIQLVQSGAEVKKPGSSVKVSCKASGYTFTDYYINWMRQAPGQGLEWIGWIDPGSGNTKYNEKFKGRATLTVDTSTNTAYMELSSLRSEDTAFYFCAREKTTYYYAMDYWGQGTLVTVSS
VL: DIQMTQSPSTLSASVGDRVTITCRSSKSLLHSNGDTFLYWFQQKPGKAPKLLMYRMSNLASGVPSRFSGSGSGTEFTLTISSLQPDDFATYYCMQHLEYPFTFGQGTKVEVKR
B2: hu:CTMO1: CDR-grafted humanised CTMO1, gL1 light chain, gH2 heavy chain, altered human IgG4 (IgG4P) constant domains (antibody, V domains shown)
VH: QIQLVQSGAEVKKPGSSVKVSCKASGYTFTDYYINWMRQAPGQGLEWIGWIDPGSGNTKYNEKFKGRATLTVDTSTNTAYMELSSLRSEDTAFYFCAREKTTYYYAMDYWGQGTLVTVSS
VL: DIQMTQSPSTLSASVGDRVTITCRSSKSLLHSNGDTFLYWFQQKPGKAPKLLMYRMSNLASGVPSRFSGSGSGTEFTLTISSLQPDDFATYYCMQHLEYPFTFGQGTKVEVKR
B3: hu1:CTMO1: CDR-grafted humanised CTMO1, gL1 light chain, gH2 heavy chain, human IgG2 constant domains, from NSO cells (antibody, V domains shown)
VH: QIQLVQSGAEVKKPGSSVKVSCKASGYTFTDYYINWMRQAPGQGLEWIGWIDPGSGNTKYNEKFKGRATLTVDTSTNTAYMELSSLRSEDTAFYFCAREKTTYYYAMDYWGQGTLVTVSS
VL: DIQMTQSPSTLSASVGDRVTITCRSSKSLLHSNGDTFLYWFQQKPGKAPKLLMYRMSNLASGVPSRFSGSGSGTEFTLTISSLQPDDFATYYCMQHLEYPFTFGQGTKVEVKR
B4: gL1gH1: CDR-grafted light chain gL1 with CDR-grafted heavy chain gH1 (antibody, V domains shown)
VH: QIQLVQSGAEVKKPGSSVKVSCKASGYTFTDYYINWMRQAPGQGLEWMGWIDPGSGNTKYNEKFKGRVTITVDTSTNTAYMELSSLRSEDTAFYFCAREKTTYYYAMDYWGQGTLVTVSS
VL: DIQMTQSPSTLSASVGDRVTITCRSSKSLLHSNGDTFLYWFQQKPGKAPKLLMYRMSNLASGVPSRFSGSGSGTEFTLTISSLQPDDFATYYCMQHLEYPFTFGQGTKVEVKR

How the values were obtained:
[1] = test system: polymorphic epithelial mucin (PEM); test: Direct binding ELISA on PEM-coated microwell plates, transiently expressed antibodies; set-up: species or system human; conditions: from all direct binding assays (FIG. 22, 23)
Protocol: Direct binding ELISA assays for determining the binding activity of the transiently expressed antibodies were carried out as follows.
An affinity column was prepared by attaching the CTM01 MAb to a suitable chromatographic medium in conventional manner. In a first method, pooled human urine samples were applied directly to the affinity column. In a second method, human milk was subjected to low speed centrifugation to separate the cream from skimmed milk. The skimmed milk was then subjected to high speed centrifugation to produce an aqueous and a lipid component. The aqueous component was applied to the affinity column.
Once the affinity column was loaded, by either of the two methods, column fractions were eluted at high and low pHs, neutralised and assayed for reactivity with the CTM01 MAb. Fractions showing reactivity were pooled and dialysed.
Microwell plates were coated with PEM obtained as described above. The microwells were then incubated with serial dilutions of culture supernatants.
Direct binding assays were carried out on the culture supernatants produced by the doubly transfected cell lines.

[2] = test system: MCF-7 breast carcinoma cells; test: In vitro cell binding and internalisation of 125I-labelled antibody, MCF-7; format: cell-based; conditions: MCF-7 cells; 125I-labelled antibody at 2 μg/million cells; continuous exposure
Protocol: (§1) Antibody, purified from the supernatant of each cultured cell line by protein-A sepharose chromatography was radiolabelled (^125I) and incubated using a conventional continuous exposure method with either MX-1 or MCF-7 breast carcinoma cells. Radiolabelled murine CTMO1 was used in all tests as a comparison. All antibodies were incubated at 2 μg/million cells. The total binding of antibodies to the cells and the peak net uptake of the antibodies by the cells was determined.

[3] = test system: MX-1 breast carcinoma cells; test: In vitro cell binding and internalisation of 125I-labelled antibody, MX-1; format: cell-based; conditions: MX-1 cells; 125I-labelled antibody at 2 μg/million cells; continuous exposure
Protocol: as §1

Molecule | order of binding activity of antibodies produced by transient expression [1] | Peak Net Uptake (molecules/cell) [2] | Total Binding, 0° (molecules/cell) [2] | Peak Net Uptake (molecules/cell) [3] | Total Binding, 0° (molecules/cell) [3]
B1 | cLcH3>gL1ch=gL1gH2>cLgH2=gL2H2=gL1gH1=gL2cH>gL2gH1 | – | – | – | –
B2 | – | 90,000 molecules/cell | 450,000 molecules/cell | 150,000 molecules/cell | 1,100,000 molecules/cell
B3 | – | 150,000 molecules/cell | 650,000 molecules/cell | 150,000 molecules/cell | 1,200,000 molecules/cell
B4 | cLcH3>gL1ch=gL1gH2>cLgH2=gL2H2=gL1gH1=gL2cH>gL2gH1 | – | – | – | –
